Like-named read-outs stand apart in the source and are kept apart here.
B1: ZKA25 (antibody, V domains shown)
VH: EVQLVESGGGLVRPGGSLRLSCAASGFTFRSHWMSWVRQAPGKGLEWVANIKEDGYEKYYVDSVKGRFTISRDNAKNSLYLQMKSLRAEDTAVYYCARDLRVYSGRGFDPWGQGTLVTVSS
VL: not shown
B2: ZKA15 (antibody, V domains shown)
VH: QVQLQESGPGLVKPSETLSLTCTVSGGFINSYYWSWIRQPAGKGLEWIGRIYKSGSTNYNPSLKSRVTMSLDTSKYQFSLKLRSVTAADTAVYYCARDPYGDYVKAFDIWGQGTMVTVSS
VL: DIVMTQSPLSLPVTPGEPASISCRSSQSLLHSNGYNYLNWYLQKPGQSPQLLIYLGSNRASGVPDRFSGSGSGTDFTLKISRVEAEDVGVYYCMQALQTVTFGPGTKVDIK
B3: ZKA35 (antibody, V domains shown)
VH: QVQLQESGPGLVKPSQTLSLTCTVSGGSISTGGYYWSWIRQHPGKGLEWIGYIYYSGNTYYNPSLKSRVTISVDTSKKQFSLKLSSVTAADTAVYYCAKGGGRERPFDYWGQGTLVTVSS
VL: QSVLTQPPSASGTPGQRVTISCSGSSSNIGRNYVDWYQQLPGTAPKLLIYRNNQRPSGVPERFSGSKSGTSASLAISGLRSEDEADYYCVAWDDSRSGFVVFGGGTKVTVL

How the values were obtained:
Test in all cases: ELISA
ZIKV NS1 [1] = biological target: ZIKV NS1 (Zika virus (ZIKV))
ZIKV NS1 [2] = biological target: ZIKV NS1 (Zika virus (ZIKV)); remark: listed apart in the source
JEV NS1 = biological target: JEV NS1
YFV NS1 = biological target: YFV NS1
WNV NS1 = biological target: WNV NS1
TBEV NS1 = biological target: TBEV NS1

Row | Binder | EC50 (ZIKV NS1 [1]) [ng/mL] | EC50 (ZIKV NS1 [2]) [ng/mL] | EC50 (JEV NS1) [ng/mL] | EC50 (YFV NS1) [ng/mL] | EC50 (WNV NS1) [ng/mL] | EC50 (TBEV NS1) [ng/mL]
1 | B1 | 2 | 2.44 |  |  |  | 
2 | B2 | 3 | 2.76 | 5500 | 2780 | 3220 | 4610
3 | B3 | 2 | 1.74 |  |  |  | 
